The assay has as its target plasma proteins (fresh human plasma). The experiment in a line: size exclusion chromatography (Sephadex G-50 spin columns) with gamma counting, after incubation in fresh human plasma at 37 C for up to 4 h. A general note: In gel filtration, larger molecules generally elute earlier.

“99mTc-HYNIC-P8RI (obtained with tricine/EDDA as coligands) (peptide)” gave a protein binding (% bound to plasma proteins) of less than 5%.
